Laboratory results taken from patent US20120190623.

Tests used:
[1] = biological target: FVIII mutant L/L 2251/2252 L/S (L2252S) (UniProt P00451)
[2] = biological target: FVIII mutant M/F 2199/2200 W/W (UniProt P00451)
[3] = biological target: FVIII mutant M/F/L 2199/2200/2252 W/W/S (UniProt P00451)
FVIII mutant M/F/L 2199/2200/2252 W/W/S, sequence (P00451 other isoform, or with tags, fused parts or gaps mutant): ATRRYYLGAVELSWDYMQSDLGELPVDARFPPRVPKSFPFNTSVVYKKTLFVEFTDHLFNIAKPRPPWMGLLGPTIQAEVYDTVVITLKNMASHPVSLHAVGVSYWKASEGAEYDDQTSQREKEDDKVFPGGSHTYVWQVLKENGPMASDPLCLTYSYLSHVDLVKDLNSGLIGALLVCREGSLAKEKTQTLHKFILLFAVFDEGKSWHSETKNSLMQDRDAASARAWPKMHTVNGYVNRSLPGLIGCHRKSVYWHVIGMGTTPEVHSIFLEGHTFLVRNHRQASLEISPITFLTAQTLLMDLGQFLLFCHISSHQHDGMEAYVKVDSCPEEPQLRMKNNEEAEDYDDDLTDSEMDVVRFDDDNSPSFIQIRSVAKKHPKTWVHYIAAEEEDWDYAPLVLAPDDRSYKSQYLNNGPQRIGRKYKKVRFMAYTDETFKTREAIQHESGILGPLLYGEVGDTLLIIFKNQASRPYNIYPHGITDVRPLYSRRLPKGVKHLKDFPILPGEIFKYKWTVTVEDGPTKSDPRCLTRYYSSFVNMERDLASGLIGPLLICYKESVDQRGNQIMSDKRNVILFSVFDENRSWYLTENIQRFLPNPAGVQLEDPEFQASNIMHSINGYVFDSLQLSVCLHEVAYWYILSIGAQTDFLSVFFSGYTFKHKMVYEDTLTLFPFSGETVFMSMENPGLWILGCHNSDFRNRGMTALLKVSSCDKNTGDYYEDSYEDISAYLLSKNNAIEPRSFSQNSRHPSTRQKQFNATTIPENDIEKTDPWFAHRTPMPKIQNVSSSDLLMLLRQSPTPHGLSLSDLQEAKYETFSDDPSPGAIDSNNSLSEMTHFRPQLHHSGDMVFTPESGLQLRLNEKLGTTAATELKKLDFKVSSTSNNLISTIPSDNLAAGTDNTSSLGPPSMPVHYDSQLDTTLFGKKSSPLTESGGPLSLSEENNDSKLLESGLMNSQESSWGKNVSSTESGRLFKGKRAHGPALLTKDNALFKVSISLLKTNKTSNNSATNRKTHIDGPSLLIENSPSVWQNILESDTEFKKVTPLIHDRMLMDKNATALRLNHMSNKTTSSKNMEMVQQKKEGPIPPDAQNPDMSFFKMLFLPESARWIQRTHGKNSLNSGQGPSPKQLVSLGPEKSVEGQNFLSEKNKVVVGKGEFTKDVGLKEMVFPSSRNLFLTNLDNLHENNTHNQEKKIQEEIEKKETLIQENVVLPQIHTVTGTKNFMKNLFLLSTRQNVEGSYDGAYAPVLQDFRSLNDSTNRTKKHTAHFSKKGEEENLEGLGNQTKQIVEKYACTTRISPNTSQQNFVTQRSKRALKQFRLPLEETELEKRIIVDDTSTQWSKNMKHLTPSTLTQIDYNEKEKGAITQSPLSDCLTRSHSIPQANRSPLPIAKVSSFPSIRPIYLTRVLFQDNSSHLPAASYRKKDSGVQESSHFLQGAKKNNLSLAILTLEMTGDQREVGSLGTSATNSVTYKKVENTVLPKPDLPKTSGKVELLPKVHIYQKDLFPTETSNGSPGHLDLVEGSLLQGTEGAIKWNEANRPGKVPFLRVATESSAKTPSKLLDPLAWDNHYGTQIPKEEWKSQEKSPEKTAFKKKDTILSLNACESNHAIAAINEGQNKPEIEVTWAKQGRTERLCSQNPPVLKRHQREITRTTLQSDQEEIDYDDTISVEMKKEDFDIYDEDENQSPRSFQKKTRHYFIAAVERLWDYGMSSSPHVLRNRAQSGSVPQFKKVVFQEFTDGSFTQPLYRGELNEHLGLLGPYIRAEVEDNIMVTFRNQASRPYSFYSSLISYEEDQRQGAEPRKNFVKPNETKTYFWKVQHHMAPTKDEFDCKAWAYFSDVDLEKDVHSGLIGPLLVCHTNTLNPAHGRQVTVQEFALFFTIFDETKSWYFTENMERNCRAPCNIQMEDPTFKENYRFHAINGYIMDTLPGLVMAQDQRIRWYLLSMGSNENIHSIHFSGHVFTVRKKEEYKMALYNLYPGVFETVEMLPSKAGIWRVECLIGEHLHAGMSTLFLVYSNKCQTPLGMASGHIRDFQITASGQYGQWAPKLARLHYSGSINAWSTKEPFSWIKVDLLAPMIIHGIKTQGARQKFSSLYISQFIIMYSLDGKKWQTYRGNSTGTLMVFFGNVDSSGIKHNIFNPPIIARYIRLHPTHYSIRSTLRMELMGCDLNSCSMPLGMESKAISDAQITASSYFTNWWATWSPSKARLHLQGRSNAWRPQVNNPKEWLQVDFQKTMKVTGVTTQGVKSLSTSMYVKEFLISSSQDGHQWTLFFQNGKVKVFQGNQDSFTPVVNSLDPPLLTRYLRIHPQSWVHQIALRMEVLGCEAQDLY

FVIII mutant L/L 2251/2252 L/S (L2252S), sequence (P00451 20-2351 L2271S): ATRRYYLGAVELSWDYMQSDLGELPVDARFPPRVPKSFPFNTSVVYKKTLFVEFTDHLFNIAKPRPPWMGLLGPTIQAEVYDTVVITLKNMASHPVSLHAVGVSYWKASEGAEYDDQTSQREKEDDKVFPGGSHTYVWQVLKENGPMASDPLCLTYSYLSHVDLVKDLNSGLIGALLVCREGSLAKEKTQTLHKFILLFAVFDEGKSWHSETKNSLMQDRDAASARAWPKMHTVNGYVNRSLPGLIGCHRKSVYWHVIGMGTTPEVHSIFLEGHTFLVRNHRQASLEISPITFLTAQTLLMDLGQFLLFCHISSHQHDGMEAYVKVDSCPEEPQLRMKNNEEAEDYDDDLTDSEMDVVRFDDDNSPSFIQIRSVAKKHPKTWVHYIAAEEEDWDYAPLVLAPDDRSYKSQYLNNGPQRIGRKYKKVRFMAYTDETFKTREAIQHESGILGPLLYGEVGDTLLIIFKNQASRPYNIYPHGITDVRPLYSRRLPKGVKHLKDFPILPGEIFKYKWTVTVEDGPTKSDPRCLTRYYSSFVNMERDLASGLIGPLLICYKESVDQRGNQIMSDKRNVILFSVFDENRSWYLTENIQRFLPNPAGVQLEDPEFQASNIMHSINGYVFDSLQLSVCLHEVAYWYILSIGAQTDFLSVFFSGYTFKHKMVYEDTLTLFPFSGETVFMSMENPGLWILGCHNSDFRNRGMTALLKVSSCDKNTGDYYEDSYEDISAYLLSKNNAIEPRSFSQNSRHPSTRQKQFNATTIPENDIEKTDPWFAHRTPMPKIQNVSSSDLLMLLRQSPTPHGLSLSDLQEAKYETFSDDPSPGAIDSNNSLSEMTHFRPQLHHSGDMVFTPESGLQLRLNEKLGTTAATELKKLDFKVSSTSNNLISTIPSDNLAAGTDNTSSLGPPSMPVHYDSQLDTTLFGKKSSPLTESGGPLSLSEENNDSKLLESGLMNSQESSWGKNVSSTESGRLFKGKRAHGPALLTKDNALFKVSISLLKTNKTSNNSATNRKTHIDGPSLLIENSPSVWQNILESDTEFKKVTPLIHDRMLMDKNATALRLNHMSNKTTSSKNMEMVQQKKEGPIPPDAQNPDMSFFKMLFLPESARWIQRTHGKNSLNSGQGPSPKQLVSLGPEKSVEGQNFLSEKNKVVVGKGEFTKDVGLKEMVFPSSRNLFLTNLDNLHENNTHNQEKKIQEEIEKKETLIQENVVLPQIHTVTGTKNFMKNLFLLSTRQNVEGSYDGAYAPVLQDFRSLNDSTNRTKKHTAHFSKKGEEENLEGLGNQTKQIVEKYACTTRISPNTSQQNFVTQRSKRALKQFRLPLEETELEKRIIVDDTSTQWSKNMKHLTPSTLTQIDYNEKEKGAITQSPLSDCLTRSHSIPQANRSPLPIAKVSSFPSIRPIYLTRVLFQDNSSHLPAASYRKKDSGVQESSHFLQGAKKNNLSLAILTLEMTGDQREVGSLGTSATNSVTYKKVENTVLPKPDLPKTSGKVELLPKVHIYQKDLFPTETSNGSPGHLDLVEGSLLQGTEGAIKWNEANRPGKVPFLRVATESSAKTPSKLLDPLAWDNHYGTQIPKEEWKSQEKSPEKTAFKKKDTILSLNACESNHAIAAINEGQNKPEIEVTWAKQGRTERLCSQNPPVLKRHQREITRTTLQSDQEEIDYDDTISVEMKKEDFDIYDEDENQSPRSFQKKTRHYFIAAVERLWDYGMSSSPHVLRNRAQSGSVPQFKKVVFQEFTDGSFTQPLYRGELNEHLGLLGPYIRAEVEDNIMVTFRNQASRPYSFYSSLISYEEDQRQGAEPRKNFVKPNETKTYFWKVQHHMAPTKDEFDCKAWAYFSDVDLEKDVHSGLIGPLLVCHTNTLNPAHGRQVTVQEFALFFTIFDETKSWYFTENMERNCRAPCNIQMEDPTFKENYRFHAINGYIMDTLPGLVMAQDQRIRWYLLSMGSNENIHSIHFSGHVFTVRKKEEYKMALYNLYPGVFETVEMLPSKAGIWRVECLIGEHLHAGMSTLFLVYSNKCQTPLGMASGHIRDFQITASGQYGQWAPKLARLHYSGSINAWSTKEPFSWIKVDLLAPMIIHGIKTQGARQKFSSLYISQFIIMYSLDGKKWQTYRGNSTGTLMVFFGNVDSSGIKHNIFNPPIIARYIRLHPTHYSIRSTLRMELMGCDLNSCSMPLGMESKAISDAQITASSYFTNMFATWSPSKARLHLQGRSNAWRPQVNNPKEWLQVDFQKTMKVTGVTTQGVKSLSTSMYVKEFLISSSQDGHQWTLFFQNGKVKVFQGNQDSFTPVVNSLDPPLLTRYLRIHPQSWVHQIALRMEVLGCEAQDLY
FVIII mutant M/F 2199/2200 W/W, sequence (P00451 other isoform, or with tags, fused parts or gaps mutant): as the sequence (P00451 20-2351 L2271S) above, with M2199W, F2200W, S2252L counted along it

factor IXa
apparent affinity for factor IXa, Xase assay with 15% PS vesicles [1]: the apparent affinity for factor IXa was reduced 5-fold | apparent affinity of factor IXa, Xase assay with saturating PL, 1000 µM [1]: the apparent affinity of factor IXa for the mutants was decreased approximately 4-fold for the three mutants | apparent affinity for factor IXa, Xase assay with 15% PS vesicles [2]: the apparent affinity for factor IXa was reduced 5-fold | apparent affinity of factor IXa, Xase assay with saturating PL, 1000 µM [2]: the apparent affinity of factor IXa for the mutants was decreased approximately 4-fold for the three mutants | apparent affinity for factor IXa, Xase assay with 15% PS vesicles [3]: the apparent affinity for factor IXa was reduced 5-fold | apparent affinity of factor IXa, Xase assay with saturating PL, 1000 µM [3]: the apparent affinity of factor IXa for the mutants was decreased approximately 4-fold for the three mutants
